This is an account of results in article doi:10.1101/2022.07.21.500954 (bioRxiv, 2022).

The series concerns the molecule itself. Kind of series: SEC-MALS.

B1: cerato-platanin-like protein 1 (Cpl1) from Ustilago maydis, tag-free recombinant protein (natural protein, UniProt A0A0D1E4Q7 22-240, looked up)
chain: AVDITFTSGKFNRRDDSTVVKQKNPEFGMNLANQYIIRKGAGLPPAKDVKETYPECKWRHYAGSFGWLDDYNVQCYLSPSYKFHAHSIAKAFKAEPSTKAGACFDTANTDQFPEGVPKYSIGVPYLYMNNLYDRRCKVRAMVKIPKTDEHEEKWVQAWVIDHNLGNWDKDGKENDAYPKDGVLIDTNMYEQFFDKNKKVPDYSKTVPVEWFFLDINTVG
As for B1, the “stoichiometry N” value stood at 2.
